Assay results from publication PMC4539046 (Neuropharmacology, 2015).
Each block holds one binder with its values, some of them ahead of it. Where no end group is shown, it is not given here.

What was measured:
Assay in all cases: AlphaScreen or HTRF
His-PSD95(1–392) = His-PSD95(1–392) (UniProt P31016 1-392)
GST-PSD95(1–392) [1] = target: T1, GST-PSD95(1–392) (UniProt P31016 1-392)
GST-PSD95(1–392) [2] = target: T1, GST-PSD95(1–392); remark: listed apart in the source

- EC50 (His-PSD95(1–392)): 10 nM
Binder: SLKPGTVLPPPPYRHRNTVV (peptide, UniProt Q15303 1289-1308, looked up, not fully specified (N-terminus); also: biotin (position not given here)) [Biot-ErbB4(1289–1308)]

- IC50 (GST-PSD95(1–392) [1]): 30 nM
B1: nNOS(1–130) without any tag (domain or fragment, UniProt P29476-1 1-130, looked up)
chain: MEENTFGVQQIQPNVISVRLFKRKVGGLGFLVKERVSKPPVIISDLIRGGAAEQSGLIQAGDIILAVNDRPLVDLSYDSALEVLRGIASETHVVLILRGPEGFTTHLETTFTGDGTPKTIRVTQPLGPPT

- EC50 (GST-PSD95(1–392) [2]): 30 nM
B2: His-nNOS(1–299) (domain or fragment, UniProt P29476-1 1-299, looked up)
chain: MEENTFGVQQIQPNVISVRLFKRKVGGLGFLVKERVSKPPVIISDLIRGGAAEQSGLIQAGDIILAVNDRPLVDLSYDSALEVLRGIASETHVVLILRGPEGFTTHLETTFTGDGTPKTIRVTQPLGPPTKAVDLSHQPSASKDQSLAVDRVTGLGNGPQHAQGHGQGAGSVSQANGVAIDPTMKSTKANLQDIGEHDELLKEIEPVLSILNSGSKATNRGGPAKAEMKDTGIQVDRDLDGKSHKAPPLGGDNDRVFNDLWGKDNVPVILNNPYSEKEQSPTSGKQSPTKNGSPSRCPR
